The target of the assay is T1, protease-activated receptor 2 (rat (endogenous in isolated Sprague Dawley rat arteries)) (UniProt Q63645).
T1 sequence: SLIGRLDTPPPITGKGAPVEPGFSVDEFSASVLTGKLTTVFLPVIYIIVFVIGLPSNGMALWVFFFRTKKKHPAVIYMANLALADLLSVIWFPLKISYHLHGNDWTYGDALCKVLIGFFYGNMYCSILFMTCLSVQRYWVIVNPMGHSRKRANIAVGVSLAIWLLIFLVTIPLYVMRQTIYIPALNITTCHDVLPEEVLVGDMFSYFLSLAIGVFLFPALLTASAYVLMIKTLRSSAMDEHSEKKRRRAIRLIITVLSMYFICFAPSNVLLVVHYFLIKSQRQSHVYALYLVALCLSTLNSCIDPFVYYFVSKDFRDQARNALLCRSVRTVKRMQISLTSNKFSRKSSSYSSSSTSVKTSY

On to SLIGRL [PAR-2 peptide agonist SLIGRL], for which the EC50 of vasodilatation to SLIGRL (10 nM-10 uM), wire myography, MRA pre-constricted with 1 uM phenylephrine, control worked out at 7.02 µM; the EC50 of vasodilatation to SLIGRL (100 nM-100 uM), wire myography, basilar artery pre-constricted with 1 uM 5-HT, control came out at 9.65 µM; the EC50 of vasodilatation to SLIGRL, wire myography, MRA from heparin-treated rats with 0.1 mM L-NNA, control worked out at 86.4 µM; the EC50 of vasodilatation to SLIGRL, wire myography, MRA from heparin-treated rats with 0.1 mM L-NNA, pre-incubated with 10 uM apixaban is 6.45 µM. The same molecule displayed an EC50 of vasodilatation to SLIGRL, wire myography, MRA from heparin-treated rats, control of 1.04 µM; an EC50 of vasodilatation to SLIGRL, wire myography, MRA from heparin-treated rats, pre-incubated with 10 uM apixaban of 0.71 µM; an EC50 of vasodilatation to SLIGRL, wire myography, MRA pre-constricted with 1 uM phenylephrine, pre-incubated with 10 uM apixaban of 1.83 µM; an EC50 of vasodilatation to SLIGRL, wire myography, MRA with 0.1 mM L-NNA, control of 3.03 µM. For the same molecule, the EC50 of vasodilatation to SLIGRL, wire myography, MRA with 0.1 mM L-NNA, pre-incubated with 10 uM apixaban is 2.27 µM; the EC50 of vasodilatation to SLIGRL, wire myography, basilar artery pre-constricted with 1 uM 5-HT, pre-incubated with 10 uM apixaban was 4.41 µM; the EC50 of vasodilatation to SLIGRL, wire myography, basilar artery with 0.1 mM L-NNA, control amounted to 34.1 µM; the EC50 of vasodilatation to SLIGRL, wire myography, basilar artery with 0.1 mM L-NNA, pre-incubated with 10 uM apixaban is 20.3 µM.

The values are drawn from article PMC5513931.
